Assay results as given in the Immune Epitope Database (IEDB).

target: HLA-A*03:01; test: IEDB peptide-MHC binding, purified MHC/competitive/radioactivity; ≥ and ≤ were set here for values at or beyond the usual limits of such assays; conditions: source organism: unidentified

IC50	Sequence
960 nM	LDAGLKKQFYK
12300 nM	AVYEGHVSCVKG
372 nM	RAVPGPPAR
13100 nM	GATCELPLQK
25700 nM	RIKFSDDRVCKG
8480 nM	GFQNALLVR
666 nM	GSTCIYGGAPK
2590 nM	RTGVPPTIR
2720 nM	QTALVEIIK
31 nM	STLTDSLVCGK
14 nM	IISIVTGLK
1830 nM	RVFPSNVICKG
343 nM	RLADKSVLVCKG
56 nM	RAAPPPPPR
819 nM	GITCPQVLIQK
18600 nM	QFLEENTNILK
4.8 nM	ALSPVLIPR
175 nM	RAAAPPLPR
10000 nM	QDKVKTLTGK
1310 nM	NTCQDAAIVGYK
2180 nM	PSVGPVLGR
10000 nM	LNDRGGSVIK
238 nM	RSLTGILGK
202 nM	GVVCPVSDILYK
0.78 nM	KISFPIIAK
119 nM	SVRELNFTK
8740 nM	SLFSTSSKL

target: HLA-B*07:02; test: as above; conditions: source organism: unidentified

IC50	Sequence
713 nM	PGRGARRLLALV
33 nM	LGPRAAAAGAL
9210 nM	PVEKNTVEL
0.96 nM	NPRGARVIAL
4590 nM	VPAQSRPCVG
10000 nM	WSVMDQDSL
3230 nM	PVRPAAAAATAL
98 nM	FPRVSTPLA
266 nM	GVWEEVGCAKG
10000 nM	PSTLNVGTL
111 nM	LPPPARPPI
11500 nM	PGREAVSKL
11300 nM	PKASSGSFSL
367 nM	SPLAASKECAV
8490 nM	PLRDARVSDL
3.6 nM	RPRWGAAAS
554 nM	LPRGGSVLVTCG
4.3 nM	APRRPTQGTVTF

target: HLA-B*27:05; test: as above; conditions: source organism: unidentified

IC50	Sequence
32 nM	GRFEVGKKICLG
466 nM	PRPRGGSDL
24 nM	RRVYLEGRCVG
657 nM	GRVCSNRHGLIR
5760 nM	GKLCQHIIKR
83 nM	AHKEIHQQL
3170 nM	ARVKEVEEMCKG
16 nM	ERAGPLSGKKF
10000 nM	GRNKLLQSW
16 nM	RRYNGGVGRCQ
241 nM	TRLVLDPVR
1.6 nM	RRVSQGLLGK
336 nM	PRGSGGIGL
27600 nM	PKLLGPLSL
1520 nM	TRSTGLLGVK
10000 nM	LKRDKLFEK
986 nM	VRSPGATASSL
5.3 nM	ARCGGALLAL
833 nM	RGLASPPPVR
108 nM	RRNDKQLCIG

target: HLA-A*01:01; test: as above; conditions: source organism: unidentified

IC50	Sequence
201 nM	GCLDTAQRNLY
32 nM	ADTDSPLRY
26600 nM	LVIDNGSGMCKG
10000 nM	DKDGCMVEQY
5130 nM	GLELSGCIVY
10000 nM	EKPHSEAGTAF
1710 nM	PHSPALQPI
30 nM	ETESQQIRY
